This note sets out measurements from the RNAGym collection of RNA variant scans (doi:10.1021/acssynbio.7b00057).

To fix the notation:
B1: Pistol ribozyme (parent)
chain: GGGUCGUUGUUCCAUAAUCGCGUGGAUAUGGCACGCAAGUUUCUACCGGGCACCGUAAAUGUCCGACUGGAGCCGUUCGGGCGGCUAUAAACAGACCUCAGGCCCGAAGCGUGGCGGCACCUGCCGCCGGUGGUAAAAAAGAUCGGAAGAGCACACGUCU

The variants in this data set derive from B1. The data set can be described thus: aptazyme ON/OFF ratio, guanine; higher = stronger switching; co-transcriptional cleavage with and without guanine.
For GGGUCGCGCCGUAAUAAUCGCGUGGAUAUGGCACGCAAGUUUCUACCGGGCACCGUAAAUGUCCGACUGGAGCCGUUCGGGCGGCUAUAAACAGACCUCAGGCCCGAAGCGUGGCGGCACCUGCCGCCGGUGGUAAAAAAGAUCGGAAGAGCACACGUCU, the “aptazyme ON/OFF ratio” value came out at 1.07.

As for GGGUCGCGCCGUGAUAAUCGCGUGGAUAUGGCACGCAAGUUUCUACCGGGCACCGUAAAUGUCCGACUGGAGCCGUUCGGGCGGCUAUAAACAGACCUCAGGCCCGAAGCGUGGCGGCACCUGCCGCCGGUGGUAAAAAAGAUCGGAAGAGCACACGUCU, the “aptazyme ON/OFF ratio” value was 1.09.

With GGGUCGCGCCGUUAUAAUCGCGUGGAUAUGGCACGCAAGUUUCUACCGGGCACCGUAAAUGUCCGACUGGAGCCGUUCGGGCGGCUAUAAACAGACCUCAGGCCCGAAGCGUGGCGGCACCUGCCGCCGGUGGUAAAAAAGAUCGGAAGAGCACACGUCU, the “aptazyme ON/OFF ratio” value stood at 1.07.

Consider GGGUCGCGCGUUGAUAAUCGCGUGGAUAUGGCACGCAAGUUUCUACCGGGCACCGUAAAUGUCCGACUGGAGCCGUUCGGGCGGCUAUAAACAGACCUCAGGCCCGAAGCGUGGCGGCACCUGCCGCCGGUGGUAAAAAAGAUCGGAAGAGCACACGUCU, for which the “aptazyme ON/OFF ratio” value came out at 1.14.

For the variant GGGUCGCGCGUUAAUAAUCGCGUGGAUAUGGCACGCAAGUUUCUACCGGGCACCGUAAAUGUCCGACUGGAGCCGUUCGGGCGGCUAUAAACAGACCUCAGGCCCGAAGCGUGGCGGCACCUGCCGCCGGUGGUAAAAAAGAUCGGAAGAGCACACGUCU, the “aptazyme ON/OFF ratio” value amounted to 1.24.

On to GGGUCGCGCGUUUAUAAUCGCGUGGAUAUGGCACGCAAGUUUCUACCGGGCACCGUAAAUGUCCGACUGGAGCCGUUCGGGCGGCUAUAAACAGACCUCAGGCCCGAAGCGUGGCGGCACCUGCCGCCGGUGGUAAAAAAGAUCGGAAGAGCACACGUCU, for which the “aptazyme ON/OFF ratio” value was 1.35.

Consider GGGUCGCGCGACCAUAAUCGCGUGGAUAUGGCACGCAAGUUUCUACCGGGCACCGUAAAUGUCCGACUGGAGCCGUUCGGGCGGCUAUAAACAGACCUCAGGCCCGAAGCGUGGCGGCACCUGCCGCCGGUGGUAAAAAAGAUCGGAAGAGCACACGUCU, for which the “aptazyme ON/OFF ratio” value was found to be 1.07.

Regarding GGGUCGCGCGAAGAUAAUCGCGUGGAUAUGGCACGCAAGUUUCUACCGGGCACCGUAAAUGUCCGACUGGAGCCGUUCGGGCGGCUAUAAACAGACCUCAGGCCCGAAGCGUGGCGGCACCUGCCGCCGGUGGUAAAAAAGAUCGGAAGAGCACACGUCU, the “aptazyme ON/OFF ratio” value turned out to be 1.21.

As for GGGUCGCGCGAAUAUAAUCGCGUGGAUAUGGCACGCAAGUUUCUACCGGGCACCGUAAAUGUCCGACUGGAGCCGUUCGGGCGGCUAUAAACAGACCUCAGGCCCGAAGCGUGGCGGCACCUGCCGCCGGUGGUAAAAAAGAUCGGAAGAGCACACGUCU, the “aptazyme ON/OFF ratio” value is 1.23.

As for GGGUCGCGCGAAAAUAAUCGCGUGGAUAUGGCACGCAAGUUUCUACCGGGCACCGUAAAUGUCCGACUGGAGCCGUUCGGGCGGCUAUAAACAGACCUCAGGCCCGAAGCGUGGCGGCACCUGCCGCCGGUGGUAAAAAAGAUCGGAAGAGCACACGUCU, the “aptazyme ON/OFF ratio” value came out at 1.31.

Turning to GGGUCGCGCGAUCAUAAUCGCGUGGAUAUGGCACGCAAGUUUCUACCGGGCACCGUAAAUGUCCGACUGGAGCCGUUCGGGCGGCUAUAAACAGACCUCAGGCCCGAAGCGUGGCGGCACCUGCCGCCGGUGGUAAAAAAGAUCGGAAGAGCACACGUCU, the “aptazyme ON/OFF ratio” value amounted to 1.24.

For GGGUCGCGCGAGCAUAAUCGCGUGGAUAUGGCACGCAAGUUUCUACCGGGCACCGUAAAUGUCCGACUGGAGCCGUUCGGGCGGCUAUAAACAGACCUCAGGCCCGAAGCGUGGCGGCACCUGCCGCCGGUGGUAAAAAAGAUCGGAAGAGCACACGUCU, the “aptazyme ON/OFF ratio” value was 1.24.

As for GGGUCGCGCGAACAUAAUCGCGUGGAUAUGGCACGCAAGUUUCUACCGGGCACCGUAAAUGUCCGACUGGAGCCGUUCGGGCGGCUAUAAACAGACCUCAGGCCCGAAGCGUGGCGGCACCUGCCGCCGGUGGUAAAAAAGAUCGGAAGAGCACACGUCU, the “aptazyme ON/OFF ratio” value came to 1.34.

For GGGUCGCGCGUCUAUAAUCGCGUGGAUAUGGCACGCAAGUUUCUACCGGGCACCGUAAAUGUCCGACUGGAGCCGUUCGGGCGGCUAUAAACAGACCUCAGGCCCGAAGCGUGGCGGCACCUGCCGCCGGUGGUAAAAAAGAUCGGAAGAGCACACGUCU, the “aptazyme ON/OFF ratio” value is 1.47.

On to GGGUCGCGCGUCAAUAAUCGCGUGGAUAUGGCACGCAAGUUUCUACCGGGCACCGUAAAUGUCCGACUGGAGCCGUUCGGGCGGCUAUAAACAGACCUCAGGCCCGAAGCGUGGCGGCACCUGCCGCCGGUGGUAAAAAAGAUCGGAAGAGCACACGUCU, for which the “aptazyme ON/OFF ratio” value is 1.25.

In the case of GGGUCGCGCGUCGAUAAUCGCGUGGAUAUGGCACGCAAGUUUCUACCGGGCACCGUAAAUGUCCGACUGGAGCCGUUCGGGCGGCUAUAAACAGACCUCAGGCCCGAAGCGUGGCGGCACCUGCCGCCGGUGGUAAAAAAGAUCGGAAGAGCACACGUCU, the “aptazyme ON/OFF ratio” value is 1.2.

Consider GGGUCGCGCGUAUAUAAUCGCGUGGAUAUGGCACGCAAGUUUCUACCGGGCACCGUAAAUGUCCGACUGGAGCCGUUCGGGCGGCUAUAAACAGACCUCAGGCCCGAAGCGUGGCGGCACCUGCCGCCGGUGGUAAAAAAGAUCGGAAGAGCACACGUCU, for which the “aptazyme ON/OFF ratio” value was 1.26.

Turning to GGGUCGCGCGUAAAUAAUCGCGUGGAUAUGGCACGCAAGUUUCUACCGGGCACCGUAAAUGUCCGACUGGAGCCGUUCGGGCGGCUAUAAACAGACCUCAGGCCCGAAGCGUGGCGGCACCUGCCGCCGGUGGUAAAAAAGAUCGGAAGAGCACACGUCU, the “aptazyme ON/OFF ratio” value was found to be 1.16.

In the case of GGGUCGCGCGUAGAUAAUCGCGUGGAUAUGGCACGCAAGUUUCUACCGGGCACCGUAAAUGUCCGACUGGAGCCGUUCGGGCGGCUAUAAACAGACCUCAGGCCCGAAGCGUGGCGGCACCUGCCGCCGGUGGUAAAAAAGAUCGGAAGAGCACACGUCU, the “aptazyme ON/OFF ratio” value worked out at 1.09.

As to GGGUCGCGCGUCCAUAAUCGCGUGGAUAUGGCACGCAAGUUUCUACCGGGCACCGUAAAUGUCCGACUGGAGCCGUUCGGGCGGCUAUAAACAGACCUCAGGCCCGAAGCGUGGCGGCACCUGCCGCCGGUGGUAAAAAAGAUCGGAAGAGCACACGUCU, the “aptazyme ON/OFF ratio” value was 1.47.

For the variant GGGUCGCGCGUGAAUAAUCGCGUGGAUAUGGCACGCAAGUUUCUACCGGGCACCGUAAAUGUCCGACUGGAGCCGUUCGGGCGGCUAUAAACAGACCUCAGGCCCGAAGCGUGGCGGCACCUGCCGCCGGUGGUAAAAAAGAUCGGAAGAGCACACGUCU, the “aptazyme ON/OFF ratio” value came out at 1.18.

Regarding GGGUCGCGCGUGUAUAAUCGCGUGGAUAUGGCACGCAAGUUUCUACCGGGCACCGUAAAUGUCCGACUGGAGCCGUUCGGGCGGCUAUAAACAGACCUCAGGCCCGAAGCGUGGCGGCACCUGCCGCCGGUGGUAAAAAAGAUCGGAAGAGCACACGUCU, the “aptazyme ON/OFF ratio” value was 1.13.

For GGGUCGCGCGUGGAUAAUCGCGUGGAUAUGGCACGCAAGUUUCUACCGGGCACCGUAAAUGUCCGACUGGAGCCGUUCGGGCGGCUAUAAACAGACCUCAGGCCCGAAGCGUGGCGGCACCUGCCGCCGGUGGUAAAAAAGAUCGGAAGAGCACACGUCU, the “aptazyme ON/OFF ratio” value came out at 1.12.

Regarding GGGUCGCGCGAUGAUAAUCGCGUGGAUAUGGCACGCAAGUUUCUACCGGGCACCGUAAAUGUCCGACUGGAGCCGUUCGGGCGGCUAUAAACAGACCUCAGGCCCGAAGCGUGGCGGCACCUGCCGCCGGUGGUAAAAAAGAUCGGAAGAGCACACGUCU, the “aptazyme ON/OFF ratio” value worked out at 1.27.

With GGGUCGCGCGAUAAUAAUCGCGUGGAUAUGGCACGCAAGUUUCUACCGGGCACCGUAAAUGUCCGACUGGAGCCGUUCGGGCGGCUAUAAACAGACCUCAGGCCCGAAGCGUGGCGGCACCUGCCGCCGGUGGUAAAAAAGAUCGGAAGAGCACACGUCU, the “aptazyme ON/OFF ratio” value was found to be 1.38.

Consider GGGUCGCGCCGUCAUAAUCGCGUGGAUAUGGCACGCAAGUUUCUACCGGGCACCGUAAAUGUCCGACUGGAGCCGUUCGGGCGGCUAUAAACAGACCUCAGGCCCGAAGCGUGGCGGCACCUGCCGCCGGUGGUAAAAAAGAUCGGAAGAGCACACGUCU, for which the “aptazyme ON/OFF ratio” value is 1.17.

Take GGGUCGCGCCGCUAUAAUCGCGUGGAUAUGGCACGCAAGUUUCUACCGGGCACCGUAAAUGUCCGACUGGAGCCGUUCGGGCGGCUAUAAACAGACCUCAGGCCCGAAGCGUGGCGGCACCUGCCGCCGGUGGUAAAAAAGAUCGGAAGAGCACACGUCU: the “aptazyme ON/OFF ratio” value is 1.19.

GGGUCGCGCCGCAAUAAUCGCGUGGAUAUGGCACGCAAGUUUCUACCGGGCACCGUAAAUGUCCGACUGGAGCCGUUCGGGCGGCUAUAAACAGACCUCAGGCCCGAAGCGUGGCGGCACCUGCCGCCGGUGGUAAAAAAGAUCGGAAGAGCACACGUCU: the “aptazyme ON/OFF ratio” value is 1.11.

Turning to GGGUCGCGCCGCGAUAAUCGCGUGGAUAUGGCACGCAAGUUUCUACCGGGCACCGUAAAUGUCCGACUGGAGCCGUUCGGGCGGCUAUAAACAGACCUCAGGCCCGAAGCGUGGCGGCACCUGCCGCCGGUGGUAAAAAAGAUCGGAAGAGCACACGUCU, the “aptazyme ON/OFF ratio” value amounted to 1.11.

For GGGUCGCGCGAGAAUAAUCGCGUGGAUAUGGCACGCAAGUUUCUACCGGGCACCGUAAAUGUCCGACUGGAGCCGUUCGGGCGGCUAUAAACAGACCUCAGGCCCGAAGCGUGGCGGCACCUGCCGCCGGUGGUAAAAAAGAUCGGAAGAGCACACGUCU, the “aptazyme ON/OFF ratio” value turned out to be 1.24.

GGGUCGCGCGAGGAUAAUCGCGUGGAUAUGGCACGCAAGUUUCUACCGGGCACCGUAAAUGUCCGACUGGAGCCGUUCGGGCGGCUAUAAACAGACCUCAGGCCCGAAGCGUGGCGGCACCUGCCGCCGGUGGUAAAAAAGAUCGGAAGAGCACACGUCU: the “aptazyme ON/OFF ratio” value was 1.21.

For the variant GGGUCGCGCGAGUAUAAUCGCGUGGAUAUGGCACGCAAGUUUCUACCGGGCACCGUAAAUGUCCGACUGGAGCCGUUCGGGCGGCUAUAAACAGACCUCAGGCCCGAAGCGUGGCGGCACCUGCCGCCGGUGGUAAAAAAGAUCGGAAGAGCACACGUCU, the “aptazyme ON/OFF ratio” value stood at 1.24.

As to GGGUCGCGCCGGUAUAAUCGCGUGGAUAUGGCACGCAAGUUUCUACCGGGCACCGUAAAUGUCCGACUGGAGCCGUUCGGGCGGCUAUAAACAGACCUCAGGCCCGAAGCGUGGCGGCACCUGCCGCCGGUGGUAAAAAAGAUCGGAAGAGCACACGUCU, the “aptazyme ON/OFF ratio” value came out at 1.05.

With GGGUCGCGCGUACAUAAUCGCGUGGAUAUGGCACGCAAGUUUCUACCGGGCACCGUAAAUGUCCGACUGGAGCCGUUCGGGCGGCUAUAAACAGACCUCAGGCCCGAAGCGUGGCGGCACCUGCCGCCGGUGGUAAAAAAGAUCGGAAGAGCACACGUCU, the “aptazyme ON/OFF ratio” value turned out to be 1.21.

As to GGGUCGCGCGUUCAUAAUCGCGUGGAUAUGGCACGCAAGUUUCUACCGGGCACCGUAAAUGUCCGACUGGAGCCGUUCGGGCGGCUAUAAACAGACCUCAGGCCCGAAGCGUGGCGGCACCUGCCGCCGGUGGUAAAAAAGAUCGGAAGAGCACACGUCU, the “aptazyme ON/OFF ratio” value came to 1.4.

On to GGGUCGCGCGUGCAUAAUCGCGUGGAUAUGGCACGCAAGUUUCUACCGGGCACCGUAAAUGUCCGACUGGAGCCGUUCGGGCGGCUAUAAACAGACCUCAGGCCCGAAGCGUGGCGGCACCUGCCGCCGGUGGUAAAAAAGAUCGGAAGAGCACACGUCU, for which the “aptazyme ON/OFF ratio” value was 1.16.
